{"source": "the nanobody polyreactivity screen of Harvey et al. (2022)"}
{"test": "yeast display, Sf9 membrane polyspecificity reagent, FACS + sequencing; frameworks hold sequencing errors", "method_in_brief": "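In a synthetic yeast display library (Saccharomyces cerevisiae BJ5465), nanobody expression was induced with galactose for 36–48 hours. FACS gates were set low and high (top ~1%) using anti-HA fluorescence for expression and streptavidin fluorescence for binding of the Sf9 membrane reagent. Each polyreactivity label is drawn from the gate of origin.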"}
{"sequence": "QVQLEESVGGLVQAGGSLRLICAASGSTFVYNAMGWYRPAPGTERELVAAISSGGSTDYADSVKGRFTISRDNAKNTVYLQMNSLKPEDTAVYYCAARPDYRYHYWGQGTQVTVSS", "polyreactivity (PSR sort gate)": "high polyreactivity"}
{"sequence": "QVQLVESGGGLVQAGGSLRLSCAASGSSFKRYAMGWYRQAPGKERELVAAINWRGGRTYYADSVKGRFTISRDNAKNTVYLQMNSLKPEDTAVYYCNVVSNSYYYQHYYWGQGTQVTVSS", "polyreactivity (PSR sort gate)": "high polyreactivity"}
{"sequence": "QVQLVESGGGLVQAGGSLRLSCAASGLIFAEYTMGWYRQAPGKERELVAAISWNGGSTYYADSVKGRFTISRDNAKNTVYLQMNSLKPEDTAVYYCAARYKRVKWYRYEYWGQGTQVTVSS", "polyreactivity (PSR sort gate)": "high polyreactivity"}
{"sequence": "QVQLVESGGGLVQAGGSLRLSCAASGITIYKYAMGWSRQAPGKERELVAVISRSGGSTYYADSVKGRFTISRDNAKNTVYLQMNSLKPEDTAVYYCAADYRYPRQSKYYYWGQGTQVTVSS", "polyreactivity (PSR sort gate)": "high polyreactivity"}
{"sequence": "QVQLVESGGGLVQAGGSLRISCAASGRTLRYYAMGWYRQAPGKERELVAAITSSDRTYYADSVKGRFTISRDNAKNTVYLQMNSLKPEDTAVYYCAAYRATQFGYYYWGQGTQVTVSS", "polyreactivity (PSR sort gate)": "high polyreactivity"}
{"sequence": "QVQLEESGGGLVQAGGSLRLSCAASGSTFRANAMGWYRQAPGKERELVAAISSGDSTNYADSVKGRFTISRDNAKNTVYLQMNSLKPEDTAVYYCAAVYTYYWWGSYGFWGQGTQVTVSS", "polyreactivity (PSR sort gate)": "low polyreactivity"}
{"sequence": "QVQLVESAGGLVQAGGSLRLSCPASGLTFGSYALGWYRQAPGKEREFVAAISWRGGSTYYADSVKGRFTISRDNAKNTVYLQMNSLKPEDTAVYYCAAPVTYGGSPYKYYYWGQGTQVTVSS", "polyreactivity (PSR sort gate)": "high polyreactivity"}
{"sequence": "QVQLVESGGGLVQAGGSLRLSCAASGFTFYSYAMGWYRQAPGKEREFVAAGSTYYADSVKGRFTISRGNAKNTVYLQMNSLKPEDTAVYYCAADPWIYVQSYGYWGQGTQVTVSS", "polyreactivity (PSR sort gate)": "low polyreactivity"}
{"sequence": "QVQLVESGGGLVQAGGSLRLSCATSGRTFSQYAMGWYRQAPGKERELVAVISGSGGSTYYADSVKGRFTISRDNAKNTVYLQINSLKPEDTAVYYCAKRATSWHQYDYWGQGTQVTVSS", "polyreactivity (PSR sort gate)": "low polyreactivity"}
{"sequence": "QVQLVESGGGLVQAGGSLRLSCAASGGIFTPYAMGWYIQAPGKEREFVAGIRWSGVSTSYADSVKGRFTISRDNAKNTVYFQMNSLKPEDTAVSYCAATTHRWWVTFDYWGQGTQVTVSS", "polyreactivity (PSR sort gate)": "low polyreactivity"}
{"sequence": "QVQLVESGGGLVQAGGSLRLSCAASGFIFTQNGMGWYRQAPGKERELVAAISWSAGGTYYADSVKGRFTISRDNANNTVYLQMNSLKQEDTAVYYCNAELYFYWNVWVGYDYWGQGTQVTVSS", "polyreactivity (PSR sort gate)": "low polyreactivity"}
{"sequence": "QVQLVESGGGLVQAGGSLRLSCAASGNTFYPYAMGWYRQAPGKERELVAAITSSGGSTYYADSVNGRFTISRDNAKNTVYLQMNSLKPEDTAVYYCAAYIYFLGMDYWGQGTQVTVSS", "polyreactivity (PSR sort gate)": "low polyreactivity"}
{"sequence": "QLQLVESGGGLVQAGGSRRISCAASGRTFDSNAMGSYRHAPGKERELVAAIYADSVKGRFTISRENAKNTVSLQMNFLKPEDTAVYYCAAETYSGQTYLGEYDFWGQGTQVTVSS", "polyreactivity (PSR sort gate)": "low polyreactivity"}
{"sequence": "QVQLVESGGGLVQAGGSLRLSCAASGFTFRPYVMGCYRQAPGKERELVAGISTGGSTYYADSVKGRFTISRDNAKNTVYLQMNSLKPEDTAVYYCAKRGKQYRKMNYWGQGTQVTVSS", "polyreactivity (PSR sort gate)": "high polyreactivity"}
{"sequence": "QVQLVESGGGLVQAGGSLRLSCAASGGIFTINAMGWYRQAPGKERELVAAITYGGTSTNYADSVKGRFTISRDNAKNTVYLQMNSLKPEDTAVYYCAKLPNLPGDYWGQGTQVTVSS", "polyreactivity (PSR sort gate)": "low polyreactivity"}
{"sequence": "QVQLVESGGGLVQAGGSLRLSCAASGSTFEKNAMGWYRQAPGKERELVAAISNGVSTYYADSVKGRFTISRDNAKNTVYLQMNSLKPEDTAVYYCAADLFFGAETVYYDKFDYWGQGTQVTVSS", "polyreactivity (PSR sort gate)": "low polyreactivity"}
{"sequence": "QVQLVESGGGLVQAGGSLRLSCAASGSTFILYAMGWYRQAPGKERELVAAITSRGGSTYYADSVKGRFTISRDNAKNTVYLQMNSLKPEDTAVYYCAADNGYIGPKPYFLAYPVGYDSWGQGTQVTVSS", "polyreactivity (PSR sort gate)": "low polyreactivity"}
